Results reported in patent US20080107630.

System: gelatin (0.1%, incorporated in a 10% Tris-glycine polyacrylamide gel as substrate)

human matrix metalloproteinase-8 (recombinant, secreted by A549 cells infected with AdMMP8)
gelatin hydrolysis in zymogram gel: The gelatin hydrolysis visible in the zymogram gel
